Experimental data taken from US5286847A, “Interleukin-1 muteins, their preparation and method of use to inhibit interleukin-1 activity” (New England Medical Center Hospitals, Inc., priority 1992, dated 1994).

What was measured:
[1] = biological target: T1, EL4 cell receptors (IL-1 receptor) (Mus musculus, UniProt P13504); experiment: Competitive receptor binding against [35S]-labeled mature IL-1β on EL.4 thymoma cells; design: species or system murine; details: 37° C., concentrations up to a five-fold molar excess, FIG. 4
T1 construct: incubating EL.4 thymoma cells; endogenous in cells; host or cells: EL.4 thymoma cells
T1 sequence (P13504 20-576): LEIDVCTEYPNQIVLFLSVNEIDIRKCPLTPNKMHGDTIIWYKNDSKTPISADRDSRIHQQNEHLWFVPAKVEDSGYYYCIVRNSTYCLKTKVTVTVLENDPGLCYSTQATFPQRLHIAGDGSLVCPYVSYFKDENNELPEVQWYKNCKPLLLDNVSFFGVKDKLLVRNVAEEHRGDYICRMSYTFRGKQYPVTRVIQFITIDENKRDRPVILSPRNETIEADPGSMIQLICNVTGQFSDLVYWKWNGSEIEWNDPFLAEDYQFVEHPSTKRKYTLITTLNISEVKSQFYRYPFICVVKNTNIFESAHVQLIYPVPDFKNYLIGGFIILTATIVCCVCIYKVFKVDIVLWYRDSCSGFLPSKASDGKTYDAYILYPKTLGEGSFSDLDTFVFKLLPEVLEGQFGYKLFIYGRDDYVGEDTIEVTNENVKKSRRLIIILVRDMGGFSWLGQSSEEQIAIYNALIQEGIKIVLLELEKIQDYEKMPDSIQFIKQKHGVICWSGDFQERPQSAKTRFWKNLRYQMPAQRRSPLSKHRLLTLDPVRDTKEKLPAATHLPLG
Method: FIG. 4. Competitive receptor binding. A constant amount of radioactive mature IL-1β protein was added to 1.9×10^7 EL.4 cells in binding medium. The results are presented as a percentage of radioactive IL-1β which bound specifically in the absence of competitor. The 100% value represents approximately 30,000 cpm.
As a further analysis of the receptor binding properties, nonradioactive proteins were used to complete with [^35 S]-labeled wild-type mature IL-1β for binding to EL4 cell receptors (FIG. 4). Competitive receptor binding was performed by incubating EL.4 thymoma cells at 37° C. in the presence of a constant level of [^35 S]-labeled mature IL-1β protein and increasing concentrations of non-radioactiveIL-1β competitor translation products. […] The amount of IL-1β protein synthesized by in vitro translation was determined by specific radioactivity using a radioactive IL-1β protein standard which was quantitated by radioimmune assay. […] The cells were solubilized in lysis buffer (50 mM sodium phosphate, pH 7; 10 mM ethylenediaminetetraacetic acid (EDTA); 0.1% TRITON™ X-100; 0.1% sarkosyl; 10 mM β-mercaptoethanol) before quantitation of bound radioactivity by liquid scintillation counting. […]

[2] = system: helper T-cells (D10.G4.1); experiment: Biological activity: [3H]thymidine incorporation by helper T-cells (D10.G4.1) with diluted translation mixtures; type: cell-based; details: FIG. 2
Method: FIG. 2. Biological activities of IL-1β proteins. Reticulocyte translation mixtures were incubated and assayed in the thymocyte co-stimulation assay as described previously (Jobling et al., 1988). The results are presented as [^3 H]thymidine incorporation (counts/minute)at various final dilutions of the translation mixtures.
The IL-1β proteins were synthesized by in vitro translation of SP6 or T7 messenger RNAs. In vitro protein synthesis was performed as described previously (Jobling et al., 1988; Jobling, S. A., and L. Gehrke [1987] Nature 325:622-625). The translational efficiency of all construct mRNAs was increased by replacing the untranslated leader sequence of the IL-1β mRNA with that of alfalfa mosaic virus RNA (Jobling et al., 1988; Jobling et al., 1987). All IL-1β protein translation products contain the amino-terminal methionine residue added during initiation of protein synthesis. The biological activity of the translation products was tested by quantitating [^3 H]thymidine incorporation by helper T-cells (D10.G4.1) (Kaye, Y., S. Porcelli, J. Tite, B. Jones, C. A. Janeway [1983] J. Exp. Med. 158:836-856) incubated in the presence of diluted translation reaction mixtures (FIG. 2).

[3] = biological target: T2, cell surface receptor of EL4 6.1 C10 murine thymoma cells (Mus musculus, UniProt P13504); experiment: SDS polyacrylamide gel analysis of specifically bound [35S]-labeled IL-1β proteins; type: binding; details: FIG. 3
T2 construct: endogenous in cells; host or cells: EL4 6.1 C10 murine thymoma cells
T2 sequence (P13504 20-576): T1 sequence (P13504 20-576)
Method: FIG. 3. Analysis of receptor binding. [^35 S]-labeled IL-1β proteins were incubated at 4° C. with murine EL.4 cells in the absence (-) or presence (+) or nonradioactive competitor recombinant IL-1β protein. Following incubation, the cells were sedimented through silicone oil as described previously (Jobling et al., 1988). The IL-1β proteins are identified at the top of the figure by numbers corresponding to amino acid positions. IL1(1-269) is proIL-1β, while IL1(117-269) corresponds to the mature IL-1β protein. The "native" and "Gly127 " notations at the bottom of the figure refer to the wild-type mature protein (Arg127) and the Arg127 →Gly127 mutein, respectively.
The receptor binding characteristics of the Arg127 →Gly127mutant protein were determined by Scatchard analysis and by sodium dodecyl sulfate (SDS) polyacrylamide gel analysis of specifically bound proteins (Dower et al., 1986; Jobling et al., 1988; Mosley et al., J. Biol. Chem. 1987). For the polyacrylamide gel analysis, IL-1β proteins were labeled with [^35 S]methionine during in vitro translation before cell surface receptor binding assays using EL4 6.1 C10 murine thymoma cells (Jobling et al., 1988; Mosley et al., Proc. Natl. Acad. Sci. USA, 1987; MacDonald, H. R., R. K. Lees, C. Bron [1985] J. Immunol. 135:3944) (FIG. 3). […]

[4] = biological target: T3, IL-1 receptor on EL.4 cells (Mus musculus, UniProt P13504); experiment: Equilibrium receptor binding of [35S]-labeled IL-1β peptides to EL.4 cells, Scatchard plot analysis; design: species or system murine; details: for receptor affinity compared with wild-type IL-1β (in words): equilibrium binding analyses and competitive binding studies
T3 construct: incubated with EL.4 cells; endogenous in cells; host or cells: EL.4 (murine thymoma)
T3 sequence (P13504 20-576): T1 sequence (P13504 20-576)
Method: The conversion of IL-1 molecules by mutation of specific residues gives muteins having utility as IL-1 biological activity inhibitors. Specifically disclosed is the preparation and testing of human IL-1β.
The receptor binding characteristics of the Arg127 →Gly127mutant protein were determined by Scatchard analysis and by sodium dodecyl sulfate (SDS) polyacrylamide gel analysis of specifically bound proteins (Dower et al., 1986; Jobling et al., 1988; Mosley et al., J. Biol. Chem. 1987). For the polyacrylamide gel analysis, IL-1β proteins were labeled with [^35 S]methionine during in vitro translation before cell surface receptor binding assays using EL4 6.1 C10 murine thymoma cells (Jobling et al., 1988; Mosley et al., Proc. Natl. Acad. Sci. USA, 1987; MacDonald, H. R., R. K. Lees, C. Bron [1985] J. Immunol. 135:3944) (FIG. 3). […] Equilibrium binding experiments and Scatchard plot data (Table 1) confirmed the equivalence of binding constants.

[5] = literature (Huang et al. 1987; Jobling et al. 1988); cited from earlier work
[6] = biological target: T3, IL-1 receptor on EL.4 cells; details: Jobling et al., 1988; cited from earlier work

Substance | competition with [35S]-labeled wild-type mature IL-1β for binding (in words) [1] | biological activity (half maximal), fold less than wild-type mature IL-1β [2] | biological activity relative to that induced by mature IL-1β [2] [%] | half maximal biological activity compared with proIL-1β [2] | receptor binding properties by intensity of bound protein bands, compared with native mature IL-1β [3] | Relative binding (receptor binding affinity in relation to mature wild-type IL-1β = 100%) ([4]; EL.4 cells, 4° C.) [%] | receptor affinity compared with wild-type IL-1β (in words) ([4]; listed as Arg127 →Gly127 mutant form of IL-1β) | receptor affinity compared with wild-type IL-1β (in words) ([4]; listed as Arg127 →Gly127 mutant protein) | biological activity (in words) [5] | affinity for receptor, fold less than that of mature IL-1β [6] [fold]
Arg127 →Gly127 mutant: human mature IL-1β mutein made by site-directed mutagenesis of the IL-1β cDNA converting Arg127 to Gly127 | reproducibly competed more effectively than the wild-type mature IL-1β | at least 100 fold | 1 | greater than that of proIL-1β | similar | 107 | equal affinity | indistinguishable from that of the wild-type IL-1β protein | – | –
proIL-1β: human IL-1β 31,000 dalton precursor protein, 269 amino acids | competed minimally | – | – | – | – | – | – | – | relatively low, but distinct biological activity | 30
